From patent US20230416394A1 (ELPISCIENCE SUZHOU BIOPHARMA, published 2023)

Key:
[1] = molecular target: T1, KW27-6 (human, UniProt P49961 1-510); test: FACS, HEK293F cells expressing mutant-EGFP
T1 construct: on transfected HEK-293F cells; also called human CD39 mutant KW27-6; not shown: C-terminal EGFP (vector pCMV3-GFPSpark) and any linker to it
T1 sequence: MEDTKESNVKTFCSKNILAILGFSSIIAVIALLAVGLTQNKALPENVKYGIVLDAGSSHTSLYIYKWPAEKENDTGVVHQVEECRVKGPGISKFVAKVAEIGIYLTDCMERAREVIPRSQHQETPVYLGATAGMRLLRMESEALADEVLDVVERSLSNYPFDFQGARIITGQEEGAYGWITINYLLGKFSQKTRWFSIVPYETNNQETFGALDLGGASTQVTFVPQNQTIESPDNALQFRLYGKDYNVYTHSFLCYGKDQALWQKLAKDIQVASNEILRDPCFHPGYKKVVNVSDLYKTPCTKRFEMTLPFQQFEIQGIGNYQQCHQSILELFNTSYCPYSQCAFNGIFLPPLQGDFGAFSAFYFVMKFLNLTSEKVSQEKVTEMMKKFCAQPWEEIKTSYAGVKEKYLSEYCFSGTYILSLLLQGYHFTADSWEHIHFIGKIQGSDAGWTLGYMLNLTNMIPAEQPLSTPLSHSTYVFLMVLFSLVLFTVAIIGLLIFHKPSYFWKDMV
Method: Briefly, the human CD39 mutants were generated by gene synthesis and then cloned into an expression vector pCMV3-GFPSpark. The vectors containing the validated mutated sequences were prepared and transfected into HEK293F cells. Three days post transfection, the cells were collected to testing EGFP for transgene expression. A range of dosages of antibodies (start from 100 nM, 3-folds dilution, 11 points) were tested on the 20 generated mutants and stained by AlexFluor647 labelled anti-hIgG by FACS. Antibody binding was descripted as relative binding which is derived from AlexFluor647 intensity divided by GFP intensity.

[2] = molecular target: T2, mouse CD39 (mouse, UniProt P55772 1-510); test: FACS, CHOK1-mCD39 cells
T2 construct: whole, on cells; also called mCD39; CHOK1-mCD39
T2 sequence (looked up): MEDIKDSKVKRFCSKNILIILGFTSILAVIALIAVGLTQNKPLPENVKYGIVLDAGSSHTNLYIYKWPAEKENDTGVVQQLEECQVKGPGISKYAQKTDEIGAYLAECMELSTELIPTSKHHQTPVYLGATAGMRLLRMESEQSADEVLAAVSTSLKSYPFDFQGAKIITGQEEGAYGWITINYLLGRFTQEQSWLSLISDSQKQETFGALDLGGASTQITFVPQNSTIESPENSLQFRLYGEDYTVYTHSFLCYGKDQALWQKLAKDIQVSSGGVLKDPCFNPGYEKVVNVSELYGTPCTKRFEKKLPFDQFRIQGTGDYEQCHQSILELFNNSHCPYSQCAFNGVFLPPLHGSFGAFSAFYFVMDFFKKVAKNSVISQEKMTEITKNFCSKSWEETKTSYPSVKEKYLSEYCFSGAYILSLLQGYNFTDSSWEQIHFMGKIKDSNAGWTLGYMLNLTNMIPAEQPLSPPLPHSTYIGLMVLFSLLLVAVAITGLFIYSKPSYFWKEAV
Source text: FACS were used to determine binding of the antibodies to cell lines expressing CD39 naturally (SK-MEL-28) or recombinantly (CHOK1-hCD39, CHOK1-cynoCD39, and CHOK1-mCD39), or with cells lacking CD39 expression (CHOK1-blank) as a negative control.
CHOK1-hCD39, CHOK1-cCD39, CHOK1-mCD39 and CHOK1-blank cells were maintained in culture medium according to ATCC procedure. Cells were collected and re-suspended in blocking buffer at a density of 3×10⁶ cells/ml. […] The plates were washed with FACS buffer, and cells were re-suspended in 100 μL/well of PBS. Cells were then analyzed with FACSVerse™ and mean fluorescence intensity were determined. Full binding curves were generated on the CD39 expressing cells by testing a range of antibody concentrations. Apparent affinity was determined for each antibody using Prism software.

binding result [1]: no binding (tested: 100 nM)
binding result [2]: no binding (tested: 30 µg/ml)
B1: 9-8B (antibody, V domains shown)
VH: QIQLVQSGPELKKPGETVKISCKASGYTFTHYGMNWVKQAPGKGLKWMGWINTYTGELTYADDFKGRFAFSLETSASTAYLQINNLKNEDTATYFCARRAYYRYDYVMDYWGQGTSVTVSS
VL: DIVMTQSQKFMSTSVGDRVSVTCKASHNVGTNVAWYQQKPGQSPKALIYSASYRYSGVPGRFTGSGSGTDFTLTISNVQSEDLAEYFCHQYNNYPYTFGGGTKLEIK
notes: also called Antibody 9-8B
